{"source": "paper PMC5037430", "about": "“High throughput cell-based assay for identification of glycolate oxidase inhibitors as a potential treatment for Primary Hyperoxaluria Type 1” (Scientific Reports, 2016)", "proteins": {"B1": {"name": "glycolate oxidase (GO); hydroxyacid oxidase 1 (HAO1) (Homo sapiens) (protein)", "chain": "MLPRLICINDYEQHAKSVLPKSIYDYYRSGANDEETLADNIAAFSRWKLYPRMLRNVAETDLSTSVLGQRVSMPICVGATAMQRMAHVDGELATVRACQSLGTGMMLSSWATSSIEEVAEAGPEALRWLQLYIYKDREVTKKLVRQAEKMGYKAIFVTVDTPYLGNRLDDVRNRFKLPPQLRMKNFETSTLSFSPEENFGDDSGLAAYVAKAIDPSISWEDIKWLRRLTSLPIVAKGILRGDDAREAVKHGLNGILVSNHGARQLDGVPATIDVLPEIVEAVEGKVEVFLDGGVRKGTDVLKALALGAKAVFVGRPIVWGLAFQGEKGVQDVLEILKEEFRLAMALSGCQNVKVIDKTLVRKNPLAVSKI"}}, "substrate": "O=C(O)CO", "assay": "purified protein", "settings": "FMN"}
{"protein": "B1", "values": [{"measurement": "Km", "result": 74.5, "unit": "µM"}]}
